Measured values reported in paper PMC4649906, “Unraveling the molecular architecture of a G protein-coupled receptor/β-arrestin/Erk module complex” (Scientific Reports, 2015).

B1: Raf1 interfering peptide (peptide)
peptide: KQRTVVNVRN
notes: stretch of Raf1 at the predicted interface with β-arrestin 1, within the RBD; Printed as H-KQRTVVNVRN-OH (free ends); Resuspended in H2O and used at 0.5 mM; source: synthetic peptide (Genecust laboratories)
B2: ERK interfering peptide (peptide)
peptide: ISPFEHQTY
notes: stretch of ERK2 at the predicted interface with β-arrestin 1; Printed as H-ISPFEHQTY-OH (free ends); Resuspended in H2O + 5% DMSO and used at 0.5 mM; source: synthetic peptide (Genecust laboratories)

Target: T1, human recombinant β-arrestin 1 (human, UniProt P49407 1-418)
T1 construct: β-arrestin 1, human, recombinant; Used as the prey (25 ng) in the GST pull-downs; source: bought: Gentaur (human recombinant)
T1 sequence (P49407 whole entry): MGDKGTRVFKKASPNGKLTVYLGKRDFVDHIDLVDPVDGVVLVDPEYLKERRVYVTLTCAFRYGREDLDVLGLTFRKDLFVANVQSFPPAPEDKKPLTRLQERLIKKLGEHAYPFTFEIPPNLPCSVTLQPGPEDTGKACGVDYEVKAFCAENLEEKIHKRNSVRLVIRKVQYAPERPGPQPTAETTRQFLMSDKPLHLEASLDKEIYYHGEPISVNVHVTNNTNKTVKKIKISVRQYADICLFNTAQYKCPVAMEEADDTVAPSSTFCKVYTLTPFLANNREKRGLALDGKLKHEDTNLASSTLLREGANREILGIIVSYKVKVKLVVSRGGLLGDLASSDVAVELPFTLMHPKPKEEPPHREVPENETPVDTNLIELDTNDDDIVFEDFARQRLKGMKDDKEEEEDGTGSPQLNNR
Assay: pull-down; GST fusion protein immobilised on Glutathione Sepharose 4B beads; 25 ng human recombinant β-arrestin 1 as prey, with or without 0.5 mM peptide; 20 mM Hepes pH 7.9, 50 mM KCl, 2.5 mM MgCl2, 1 mM DTT, 10% glycerol, protease and phosphatase inhibitors; 1 hour at 4 °C; six washes; blot with anti-β-arrestin, quantified as the ratio of β-arrestin 1 over GST fusion
Settings: both partners purified

Row | Binder | binding result
1 | B1 | binds
2 | B2 | binds
